According to patent US20190004036:
Read-outs that look alike come from different tables or passages of the source.

T1: 5FAMcollagenPPT protease substrate
T1 sequence: AGGPLGPPGPGGK

T2: 5FAMcollagenPPT protease substrate
T2 chain: AGGPLGPPGPGGK

B1: thermolysin (protein)
chain: ITGTSTVGVGRGVLGDQKNINTTYSTYYYLQDNTRGNGIFTYDAKYRTTLPGSLWADADNQFFASYDAPAVDAHYYAGVTYDYYKNVHNRLSYDGNNAAIRSSVHYSQGYNNAFWNGSQMVYGDGDGQTFIPLSGGIDVVAHELTHAVTDYTAGLIYQNESGAINEAISDIFGTLVEFYANKNPDWEIGEDVYTPGISGDSLRSMSDPAKYGDPDHYSKRYTGTQDNGGVHINSGIINKAAYLISQGGTHYGVSVVGIGRDKLGKIFYRALTQYLTPTSNFSQLRAAAVQSATDLYGSTSQEVASVKQAFDAVGVK
B2: collagenase class II (protein)
chain: VQNESKRYTVSYLKTLNYYDLVDLLVKTEIENLPDLFQYSSDAKEFYGNKTRMSFIMDEIGRRAPQYTEIDHKGIPTLVEVVRAGFYLGFHNKELNEINKRSFKERVIPSILAIQKNPNFKLGTEVQDKIVSATGLLAGNETAPPEVVNNFTPILQDCIKNIDRYALDDLKSKALFNVLAAPTYDITEYLRATKEKPENTPWYGKIDGFINELKKLALYGKINDNNSWIIDNGIYHIAPLGKLHSNNKIGIETLTEVMKVYPYLSMQHLQSADQIKRHYDSKDAEGNKIPLDKFKKEGKEKYCPKTYTFDDGKVIIKAGARVEEEKVKRLYWASKEVNSQFFRVYGIDKPLEEGNPDDILTMVIYNSPEEYKLNSVLYGYDTNNGGMYIEPEGTFFTYEREAQESTYTLEELFRHEYTHYLQGRYAVPGQWGRTKLYDNDRLTWYEEGGAELFAGSTRTSGILPRKSIVSNIHNTTRNNRYKLSDTVHSKYGASFEFYNYACMFMDYMYNKDMGILNKLNDLAKNNDVDGYDNYIRDLSSNYALNDKYQDHMQERIDNYENLTVPFVADDYLVRHAYKNPNEIYSEISEVAKLKDAKSEVKKSQYFSTFTLRGSYTGGASKGKLEDQKAMNKFIDDSLKKLDTYSWSGYKTLTAYFTNYKVDSSNRVTYDVVFHGYLPNEGDSKNSLPYGKINGTYKGTEKEKIKFSSEGSFDPDGKIVSYEWDFGDGNKSNEENPEHSYDKVGTYTVKLKVTDDKGESSVSTTTAEIKDLSENKLPVIYMHVPKSGALNQKVVFYGKGTYDPDGSIAGYQWDFGDGSDFSSEQNPSHVYTKKGEYTVTLRVMDSSGQMSEKTMKIKITDPVYPIGTEKEPNNSKETASGPIVPGIPVSGTIENTSDQDYFYFDVITPGEVKIDINKLGYGGATWVVYDENNNAVSYATDDGQNLSGKFKADKPGRYYIHLYMFNGSYMPYRINIEGSVGR

Assays:
[1] = test system: T1, 5FAMcollagenPPT protease substrate
[2] = target: T2, 5FAMcollagenPPT protease substrate

| Molecule | Km, with 4.14 mM calcium (FRET cleavage assay) [1] | Km, without calcium (FRET cleavage assay) [1] | Vmax, with 4.14 mM calcium (FRET cleavage assay) [1] | Vmax, without calcium (FRET cleavage assay) [1] | cleavage of substrate (FRET assay, Example 3, 0.3125-10 µg/mL enzyme, 50 µM substrate) [1] | Km (FRET cleavage assay, Example 3) [2] | Km, without calcium (FRET cleavage assay) [2] | Vmax (FRET cleavage assay, Example 3) [2] | Vmax, without calcium (FRET cleavage assay) [2] | also measured |
| --- | --- | --- | --- | --- | --- | --- | --- | --- | --- | --- |
| Neutral Protease | 45.1 µM | 74.1 µM | 29.3 RFU/min/µg | 20 RFU/min/µg | – | – | – | – | – | – |
| chymotrypsin | – | – | – | – | the mammalian proteases trypsin, chymotrypsin, and elastase do not cleave the protease substrate | – | – | – | – | – |
| collagenase class I | 32.9 µM | 38.1 µM | 1010 RFU/min/µg | 1700 RFU/min/µg | – | – | – | – | – | Km (FRET cleavage assay, Example 3) [1]: 28.2 µM; Vmax (FRET cleavage assay, Example 3) [1]: 909 RFU/min/µg |
| trypsin | – | – | – | – | the mammalian proteases trypsin, chymotrypsin, and elastase do not cleave the protease substrate | – | – | – | – | – |
| B1 | – | – | – | – | – | 34.6 µM | 30.4 µM | 24.6 RFU/min/µg | 23.7 RFU/min/µg | Km, with 4.14 mM calcium (FRET cleavage assay) [2]: 24.8 µM; Vmax, with 4.14 mM calcium (FRET cleavage assay) [2]: 25.5 RFU/min/µg |
| B2 | – | – | – | – | – | 24.5 µM | 24.1 µM | 5000 RFU/min/µg | 3240 RFU/min/µg | – |
